Our source for the kon values is patent US20210061911A1 (MacroGenics, published 2021).

In one test the target is T1, Human CD123-His (human, UniProt P26951 19-305).
T1 construct: also called interleukin 3 receptor alpha; IL-3Rα; not shown: His tag
T1 sequence (looked up): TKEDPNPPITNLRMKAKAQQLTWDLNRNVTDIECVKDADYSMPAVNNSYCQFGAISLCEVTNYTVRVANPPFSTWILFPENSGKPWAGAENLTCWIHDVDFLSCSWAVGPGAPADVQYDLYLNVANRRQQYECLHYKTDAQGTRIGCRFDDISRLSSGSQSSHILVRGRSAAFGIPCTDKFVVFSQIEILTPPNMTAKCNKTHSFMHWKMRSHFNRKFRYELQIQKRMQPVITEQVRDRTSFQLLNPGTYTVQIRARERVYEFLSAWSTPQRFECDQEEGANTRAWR
The test can be described thus: kinetic binding analysis, method not given.

The next test has as its target T2, Cynomolgus CD123-His (cynomolgus monkey).
T2 construct: also called cynomolgus monkey CD123
The test can be described thus: kinetic binding analysis, method not given.

B1: DART-A, sequence-optimized CD123×CD3 bi-specific monovalent diabody (bispecific antibody)
chain 1: QAVVTQEPSLTVSPGGTVTLTCRSSTGAVTTSNYANWVQQKPGQAPRGLIGGTNKRAPWTPARFSGSLLGGKAALTITGAQAEDEADYYCALWYSNLWVFGGGTKLTVLGGGGSGGGGEVQLVQSGAELKKPGASVKVSCKASGYTFTDYYMKWVRQAPGQGLEWIGDIIPSNGATFYNQKFKGRVTITVDKSTSTAYMELSSLRSEDTAVYYCARSHLLRASWFAYWGQGTLVTVSSGGCGGGEVAALEKEVAALEKEVAALEKEVAALEK
chain 2: DFVMTQSPDSLAVSLGERVTMSCKSSQSLLNSGNQKNYLTWYQQKPGQPPKLLIYWASTRESGVPDRFSGSGSGTDFTLTISSLQAEDVAVYYCQNDYSYPYTFGQGTKLEIKGGGSGGGGEVQLVESGGGLVQPGGSLRLSCAASGFTFSTYAMNWVRQAPGKGLEWVGRIRSKYNNYATYYADSVKDRFTISRDDSKNSLYLQMNSLKTEDTAVYYCVRHGNFGNSYVSWFAYWGQGTLVTVSSGGCGGGKVAALKEKVAALKEKVAALKEKVAALKE
notes: no Fc; also called CD123×CD3 DART molecule
A word on the kon: it is the second-order rate constant of association. A lower kon goes with slow association. Regarding B1, the kon came to 160000 M⁻¹ s⁻¹ with Human CD123-His and 150000 M⁻¹ s⁻¹ with Cynomolgus CD123-His.
